Laboratory results as given in US20230109275A1 (AUTOLUS, published 2023).

What was measured:
[1] = target: T1, TRBC1 (T cell receptor beta-chain constant domain 1), interaction partner protein injected in SPR (human, UniProt P01850 1-129, limits assumed); experiment: SPR (Biacore T200), antibody captured on anti-human IgG chip, TRBC1 injected, 25 C, 1:1 Langmuir fit
T1 construct: also called TCR beta constant region 1
Protocol: (§1) Surface plasmon resonance (SPR) was carried out on several of antibody variants of hJOVI-1 to ascertain affinity, association and dissociation rates. The sequence details of these variants Mut1 to Mut15 used in the Examples section of the present patent application are included in Tables 1 and 2. These anti-TRBC antibody variants have specificity for either TRBC1 or TRBC2.
(§2) SPR experiments were performed using a Biacore T200 instrument using HBSP1 as the running and dilution buffer (GE Healthcare BioSciences). BIAevaluation software version 2.0 (GE Healthcare) was used for data processing. For determination of the binding kinetics, mouse anti-human IgG (GE Healthcare) was covalently coupled to a CM5 Sensor Chip (GE Healthcare). Anti-TRBC1 or anti-TRBC2 antibodies were captured onto the flow cell, and various concentrations of interaction partner protein (TRBC1 or TRBC2) were injected over the flow cell at a flow rate of […] at a temperature of 25° C. A double reference subtraction was performed using buffer alone. Kinetic rate constants were obtained by curve fitting according to a 1:1 Langmuir binding model.

[2] = target: T2, TRBC2 on HPB-ALL cells engineered to express only TRBC2 (human, UniProt A0A5B9 1-178); experiment: internalisation of pHrodo red conjugated antibody, flow cytometry, 24 h
T2 construct: whole, on cells; also called HPB-ALL TRBC2; HPB-ALL TRBC2+
Protocol: (§3) Cell uptake of the anti-TRBC1 antibody hJOVI-1 and the anti-TRBC2 antibody KFN was tested on HPB-ALL cells that were engineered to express only TRBC1, only TRBC2, or which were the TRBC was knocked-out (KO). To this aim, the pH-sensitive fluorophore
(§4) Zenon pHrodo iFL red (Thermo Scientific), which has a 560/585 nm spectrum, was used to conjugate hJOVI-1 and KFN in IgG format following the manufacturer's recommendations. The irrelevant anti-HEL antibody was also conjugated for use as control. The conjugated antibodies were incubated with HPB-ALL TRBC1, HPB-ALL TRBC2 and HPB-ALL KO cells for 24 h at 37° C., 5% CO2. Test antibodies hJOVI-1, KFN, and anti-HEL were applied at 5 μg/ml in a 96-well plate with 5×10⁴ cells/well in 100 μl of RPMI 10% FBS. After 24 h, cells were washed, harvested and stained with 1:100 LIVE/DEAD™ Fixable Violet Dead Cell Stain (Thermofisher) for 10 min before being analysed by flow cytometry using a Fortessa flow cytometer (BD).

[3] = target: T3, TRBC2 (T cell receptor beta-chain constant domain 2), interaction partner protein injected in SPR (human, UniProt A0A5B9 1-129, limits assumed); experiment: SPR (Biacore T200), antibody captured on anti-human IgG chip, TRBC2 injected, 25 C, 1:1 Langmuir fit
T3 construct: the construct is not described; also called TCR beta constant region 2
Protocol: as §1, §2

[4] = target: T4, TRBC1 on HPB-ALL cells engineered to express only TRBC1 (human, UniProt P01850 1-176); experiment: internalisation of pHrodo red conjugated antibody, flow cytometry, 24 h
T4 construct: whole, on cells; also called HPB-ALL TRBC1; HPB-ALL TRBC1+
Protocol: as §3, §4

[5] = target: T4, TRBC1 on HPB-ALL cells engineered to …; experiment: internalisation (9h), pHrodo green MFI, flow cytometry
[6] = target: T2, TRBC2 on HPB-ALL cells engineered to …; experiment: as above
[7] = target: T2, TRBC2 on HPB-ALL cells engineered to …; experiment: internalisation of pHrodo green conjugated antibody, flow cytometry

T1 sequence (P01850 1-129 limits assumed): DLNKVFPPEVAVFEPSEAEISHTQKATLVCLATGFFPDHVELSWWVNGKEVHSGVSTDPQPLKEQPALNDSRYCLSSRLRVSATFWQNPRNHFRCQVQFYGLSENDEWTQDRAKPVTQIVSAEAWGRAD
T3 sequence (A0A5B9 1-129 limits assumed): as the sequence (P01850 1-129 limits assumed) above, with N3K, K4N, E9K, F36Y counted along it

| Binder | Kd [1] [nM] | koff [1] [s⁻¹] | kon [1] [M⁻¹ s⁻¹] | further results |
| --- | --- | --- | --- | --- |
| hJOVI-1 (humanised JOVI-1 antibody, reference antibody) (antibody, V domains shown, Tested in IgG format and captured by anti-human IgG in SPR; also called aTRBC1; anti-TRBC1 antibody hJOVI-1) VH: QVQLVQSGAEVKKPGASVKVSCKASGYTFTGYVMHWVRQAPGQGLEWMGFINPYNDDIQSNERFRGRVTMTRDTSISTAYMELSRLRSDDTAVYYCARGAGYNFDGAYRFFDFWGQGTMVTVSS VL: DIVMTQSPLSLPVTPGEPASISCRSSQRLVHSNGNTYLHWYLQKPGQSPRLLIYRVSNRFPGVPDRFSGSGSGTDFTLKISRVEAEDVGVYYCSQSTHVPYTFGQGTKLEIK | 2.57 | 0.000618 | 238000 | binding result [2]: no binding (tested: 5 µg/ml) |
| Mut3 (KFN) (antibody, V domains shown, Variant of hJOVI-1; IgG format; also called anti-TRBC2 antibody KFN; anti-TRBC2 clone KFN) VH: QVQLVQSGAEVKKPGASVKVSCKASGYKFTGFVMHWVRQAPGQGLEWMGFINPYNDDIQSNERFRGRVTMTRDTSISTAYMELSRLRSDDTAVYYCARGNGYNFDGAYRFFDFWGQGTMVTVSS VL: DIVMTQSPLSLPVTPGEPASISCRSSQRLVHSNGNTYLHWYLQKPGQSPRLLIYRVSNRFPGVPDRFSGSGSGTDFTLKISRVEAEDVGVYYCSQSTHVPYTFGQGTKLEIK | – | – | – | Kd [3]: 479 nM; koff [3]: 0.0386 s⁻¹; kon [3]: 83000 M⁻¹ s⁻¹; binding result [4]: no binding (tested: 5 µg/ml) |
| Mut15-MMAE (antibody, V domains shown, mc-vc-PAB-MMAE conjugated to reduced inter-chain cysteines; drug-antibody ratio 3.2, also called MMAE-conjugated Mut15; MMAE conjugated Mut15) VH: QVQLVQSGAEVKKPGASVKVSCKASGYKFTGFVMHWVRQAPGQGLEWMGFINPYNDDIQSNERFRGRVTMTRDTSISTAYMELSRLRSDDTAVYYCARGNGLMFDGAYRFFDFWGQGTMVTVSS VL: DIVMTQSPLSLPVTPGEPASISCRSSQRLVHSNGRTYLHWYLQKPGQSPRLLIYRVSNRFPGVPDRFSGSGSGTDFTLKISRVEAEDVGVYYCSQSTHVPYTFGQGTKLEIK | – | – | – | binding result [5]: no binding (tested: not printed on the sheet) |
| Mut11-MMAE (antibody, V domains shown, mc-vc-PAB-MMAE conjugated to reduced inter-chain cysteines; drug-antibody ratio 3.1, also called MMAE-conjugated Mut11; MMAE conjugated Mut11) VH: QVQLVQSGAEVKKPGASVKVSCKASGYTFTGYVMHWVRQAPGQGLEWMGFINPYNDDIQSNERFRGRVTMTRDTSISTAYMELSRLRSDDTAVYYCARGAGYNFDAAYRFFDFWGQGTMVTVSS VL: DIVMTQSPLSLPVTPGEPASISCRSSQRLVHSNGNTYLHWYLQKPGQSPRLLIYRVSNRFPGVPDRFSGSGSGTDFTLKISRVEAEDVGVYYCSQSTHVPYTFGQGTKLEIK | – | – | – | binding result [6]: no binding (tested: not printed on the sheet) |
| Mut9 (antibody, V domains shown, Variant of hJOVI-1; captured by anti-human IgG in SPR; also called VH G26P, T28K) VH: QVQLVQSGAEVKKPGASVKVSCKASPYKFTGYVMHWVRQAPGQGLEWMGFINPYNDDIQSNERFRGRVTMTRDTSISTAYMELSRLRSDDTAVYYCARGAGYNFDGAYRFFDFWGQGTMVTVSS VL: DIVMTQSPLSLPVTPGEPASISCRSSQRLVHSNGNTYLHWYLQKPGQSPRLLIYRVSNRFPGVPDRFSGSGSGTDFTLKISRVEAEDVGVYYCSQSTHVPYTFGQGTKLEIK | 28.9 | 0.00248 | 85800 | – |
| Mut4 (RFN) (antibody, V domains shown, Variant of hJOVI-1; captured by anti-human IgG in SPR) VH: QVQLVQSGAEVKKPGASVKVSCKASGYRFTGFVMHWVRQAPGQGLEWMGFINPYNDDIQSNERFRGRVTMTRDTSISTAYMELSRLRSDDTAVYYCARGNGYNFDGAYRFFDFWGQGTMVTVSS VL: DIVMTQSPLSLPVTPGEPASISCRSSQRLVHSNGNTYLHWYLQKPGQSPRLLIYRVSNRFPGVPDRFSGSGSGTDFTLKISRVEAEDVGVYYCSQSTHVPYTFGQGTKLEIK | – | – | – | Kd [3]: 582 nM; koff [3]: 0.045 s⁻¹; kon [3]: 77600 M⁻¹ s⁻¹ |
| Mut15 (antibody, V domains shown, Variant of hJOVI-1; IgG format; also called TRBC2 antibody Mut15; KFN variant Mut15) VH: QVQLVQSGAEVKKPGASVKVSCKASGYKFTGFVMHWVRQAPGQGLEWMGFINPYNDDIQSNERFRGRVTMTRDTSISTAYMELSRLRSDDTAVYYCARGNGLMFDGAYRFFDFWGQGTMVTVSS VL: DIVMTQSPLSLPVTPGEPASISCRSSQRLVHSNGRTYLHWYLQKPGQSPRLLIYRVSNRFPGVPDRFSGSGSGTDFTLKISRVEAEDVGVYYCSQSTHVPYTFGQGTKLEIK | – | – | – | Kd [3]: 1900 nM; koff [3]: 0.0832 s⁻¹; kon [3]: 43800 M⁻¹ s⁻¹; binding result [5]: no binding (tested: not printed on the sheet) |
| Mut5 (antibody, V domains shown, Variant of hJOVI-1; captured by anti-human IgG in SPR; also called VH Y32F) VH: QVQLVQSGAEVKKPGASVKVSCKASGYTFTGFVMHWVRQAPGQGLEWMGFINPYNDDIQSNERFRGRVTMTRDTSISTAYMELSRLRSDDTAVYYCARGAGYNFDGAYRFFDFWGQGTMVTVSS VL: DIVMTQSPLSLPVTPGEPASISCRSSQRLVHSNGNTYLHWYLQKPGQSPRLLIYRVSNRFPGVPDRFSGSGSGTDFTLKISRVEAEDVGVYYCSQSTHVPYTFGQGTKLEIK | 426 | 0.0457 | 107000 | – |
| Mut8 (antibody, V domains shown, Variant of hJOVI-1; captured by anti-human IgG in SPR; also called VH G31S) VH: QVQLVQSGAEVKKPGASVKVSCKASGYTFTSYVMHWVRQAPGQGLEWMGFINPYNDDIQSNERFRGRVTMTRDTSISTAYMELSRLRSDDTAVYYCARGAGYNFDGAYRFFDFWGQGTMVTVSS VL: DIVMTQSPLSLPVTPGEPASISCRSSQRLVHSNGNTYLHWYLQKPGQSPRLLIYRVSNRFPGVPDRFSGSGSGTDFTLKISRVEAEDVGVYYCSQSTHVPYTFGQGTKLEIK | 7.69 | 0.000756 | 98300 | – |
| Mut10 (antibody, V domains shown, Variant of hJOVI-1; captured by anti-human IgG in SPR; also called VH Y102M) VH: QVQLVQSGAEVKKPGASVKVSCKASGYTFTGYVMHWVRQAPGQGLEWMGFINPYNDDIQSNERFRGRVTMTRDTSISTAYMELSRLRSDDTAVYYCARGAGMNFDGAYRFFDFWGQGTMVTVSS VL: DIVMTQSPLSLPVTPGEPASISCRSSQRLVHSNGNTYLHWYLQKPGQSPRLLIYRVSNRFPGVPDRFSGSGSGTDFTLKISRVEAEDVGVYYCSQSTHVPYTFGQGTKLEIK | 90 | 0.00951 | 106000 | – |

The next lines start with results.

| Kd [1] [nM] | koff [1] [s⁻¹] | kon [1] [M⁻¹ s⁻¹] | Binder | further results |
| --- | --- | --- | --- | --- |
| 1000 | 0.108 | 107000 | Mut13 (antibody, V domains shown, Variant of hJOVI-1; captured by anti-human IgG in SPR; also called VH T28K, Y32F, A100N; VL N35K) VH: QVQLVQSGAEVKKPGASVKVSCKASGYKFTGFVMHWVRQAPGQGLEWMGFINPYNDDIQSNERFRGRVTMTRDTSISTAYMELSRLRSDDTAVYYCARGNGYNFDGAYRFFDFWGQGTMVTVSS VL: DIVMTQSPLSLPVTPGEPASISCRSSQRLVHSNGKTYLHWYLQKPGQSPRLLIYRVSNRFPGVPDRFSGSGSGTDFTLKISRVEAEDVGVYYCSQSTHVPYTFGQGTKLEIK | – |
| 707 | 0.0613 | 86800 | Mut12 (antibody, V domains shown, Variant of hJOVI-1; captured by anti-human IgG in SPR; also called VH T28K, Y32F, A100N, N103L; VL N35K) VH: QVQLVQSGAEVKKPGASVKVSCKASGYKFTGFVMHWVRQAPGQGLEWMGFINPYNDDIQSNERFRGRVTMTRDTSISTAYMELSRLRSDDTAVYYCARGNGYLFDGAYRFFDFWGQGTMVTVSS VL: DIVMTQSPLSLPVTPGEPASISCRSSQRLVHSNGKTYLHWYLQKPGQSPRLLIYRVSNRFPGVPDRFSGSGSGTDFTLKISRVEAEDVGVYYCSQSTHVPYTFGQGTKLEIK | – |
| 203 | 0.0177 | 87300 | Mut11 (antibody, V domains shown, Variant of hJOVI-1; IgG format; also called VH G106A; anti-TRBC1 antibody Mut11) VH: QVQLVQSGAEVKKPGASVKVSCKASGYTFTGYVMHWVRQAPGQGLEWMGFINPYNDDIQSNERFRGRVTMTRDTSISTAYMELSRLRSDDTAVYYCARGAGYNFDAAYRFFDFWGQGTMVTVSS VL: DIVMTQSPLSLPVTPGEPASISCRSSQRLVHSNGNTYLHWYLQKPGQSPRLLIYRVSNRFPGVPDRFSGSGSGTDFTLKISRVEAEDVGVYYCSQSTHVPYTFGQGTKLEIK | binding result [7]: no binding |
| 3590 | 0.323 | 90000 | Mut14 (antibody, V domains shown, Variant of hJOVI-1; IgG format; also called VH T28K, Y32F, A100N, A107S) VH: QVQLVQSGAEVKKPGASVKVSCKASGYKFTGFVMHWVRQAPGQGLEWMGFINPYNDDIQSNERFRGRVTMTRDTSISTAYMELSRLRSDDTAVYYCARGNGYNFDGSYRFFDFWGQGTMVTVSS VL: DIVMTQSPLSLPVTPGEPASISCRSSQRLVHSNGNTYLHWYLQKPGQSPRLLIYRVSNRFPGVPDRFSGSGSGTDFTLKISRVEAEDVGVYYCSQSTHVPYTFGQGTKLEIK | – |
